In PMC8596125, “Self‐Stabilized Supramolecular Assemblies Constructed from PEGylated Dendritic Peptide Conjugate for Augmenting Tumor Retention and Therapy” (Advanced Science, 2021):

How the values were obtained:
[1] = Size, PDI and zeta potential by DLS; type: physicochemical
Experimental: (§1) 1.3.2 Size, zeta potential and morphology
(§2) The size, polydispersity index (PDI), correlation coefficient and zeta potential of self-stabilized supramolecular assemblies (PDPP) were measured by DLS, and the morphology and particle size of PDPP were observed under a TEM. […]
(§3) 1.3.3 Colloidal stability
(§4) The colloidal stability of PDPP was assessed by monitoring the change in the size and PDI as a function of time. PDPP were added in H2O, PBS, H2O containing 10% of fetal bovine serum (FBS), and PBS containing 10% of FBS respectively, and these mixtures were incubated at 37℃ in a humidified chamber, and their sizes and PDI were monitored by DLS at a pre-determined time. […]

[2] = Colloidal stability (size and PDI over time by DLS); type: physicochemical; conditions: H2O, PBS, H2O or PBS with 10% FBS, 37 °C, 7 d, n = 3
Experimental: as §1, §2, §3, §4

[3] = Disassembly behavior in Triton X-100, NaCl or urea (DLS); type: physicochemical; conditions: 1 h incubation, n = 6
Experimental: as §1
(§5) The size, polydispersity index (PDI), correlation coefficient and zeta potential of self-stabilized supramolecular assemblies (PDPP) were measured by DLS, and the morphology and particle size of PDPP were observed under a TEM. Briefly, PDPP was dissolved in Milli-Q water and ultrasonically dispersed to prepare PDPP solutions at different concentrations (0.1, 0.5, 1.0, 5.0, and 10.0 mg mL-1) for DLS, TEM measurements. Furthermore, the effects of hydrophobic force, ionic interaction, and hydrogen bonding on the supramolecular self-assembly of PDPP were assessed by adding Triton X-100, NaCl, and urea to the PDPP solution with the final concentrations of 1, 5, 10, 20, 50 and 100 mM for Triton X-100, NaCl, and urea. After incubation for 1 h, the size changes of PDPP were recorded by DLS. […]

[4] = Critical assembly concentration (pyrene fluorescence probe); type: physicochemical; conditions: in H2O, pyrene as fluorescence probe
Experimental: Ppa was dissolved in anhydrous DMSO and then diluted in different concentrations.
The absorbance values of PDPP at 667 nm were obtained and the drug loading was calculated according to the standard absorption curve. Drug loading content (DLC) = (weight of Ppa in PDPP / weight of PDPP) × 100%.
as §1
as §5, with “Briefly, PDPP was dissolved in Milli-Q water and ultrasonically dispersed to prepare PDPP solutions at different concentrations (0.1, 0.5, 1.0, 5.0, and 10.0 mg mL-1) for DLS, TEM measurements.” left out
as §4
The CAC of PDPP was determined by using pyrene as a fluorescence probe. […]
Fluorescence emission spectrum […]

[5] = system: mouse red blood cells (RBCs); assay: Hemolysis of erythrocytes; type: cell-based; conditions: up to 10.0 mg mL-1, 37 °C, 12 h, absorbance 540 nm
Experimental: with 6×105 A549 cells subcutaneously on the right flank for the A549 model. About 2 weeks after implantation, mice with a tumor volume size of 100 mm3 were used for biodistribution and imaging, and mice with a tumor volume size of 50 mm3 for […]
1.3.11 Blood compatibility
Erythrocytes morphologies and aggregation
Erythrocytes were collected from female BALB/c mice, and erythrocytes suspension was prepared by centrifuging the citrated whole blood at 1000 g for 5 min at room temperature. After the plasma and buffy coat layers were removed, the erythrocytes were washed with PBS 3 times. […]
The dried erythrocytes samples were coated with gold and analyzed under a SEM. […]
Erythrocytes were diluted with PBS to prepare the erythrocyte suspension. […] The absorbance of the supernatant was measured with a Microplate Reader at 540 nm, and hemolysis rate was determined using the following […]
Where AS is the absorbance of the sample, A100 is the absorbance of lysed erythrocytes in H2O (a positive control), and A0 is the absorbance of 0% hemolysis in PBS (a negative control). […]
The backs of healthy BALB/c mice were depilated 3 days before treatment to ensure that all injures had recovered. […] The degree of skin response was examined and scored according to Table S5, and Paraffin sections of the skin were stained with hematoxylin and eosin (H&E) according to the manufacturer's instructions.[3] […]

4T1 cells = assay: Cytotoxicity, CCK-8 assay, 4T1; type: cell-based, mouse; conditions: no light, CCK-8, n = 3
Experimental: The CCK-8 assay was used to examine the photodynamic therapeutic effect of SSAs on cell viability against three cell lines. 4×103 4T1 cells per well were seeded in a 96-well plate, and then incubated overnight. The cells were treated with different concentrations of Ppa and SSAs at an equivalent Ppa dose. After 24 h incubation, the medium was replaced with fresh one, and the wells were irradiated using a 660 nm laser with 1 J cm−2. After 24 h, the spent media was replaced and the cell viability was assessed using the CCK-8 reagent. The absorbance at […] of each well was recorded on a microplate reader. Untreated cells were served as a control. Results were presented as the average cell viability by following the manufacturer’s instruction. IC50 values were calculated by using nonlinear regression in software Graphpad Prism7. The cytotoxicity of SSAs and Ppa with or without laser against A549 cell line was also measured through the same procedure.
(§6) The cytotoxicity of SSAs and PDP without laser irradiation was also measured by […]

L02 cells = assay: Cytotoxicity, CCK-8 assay, L02; type: cell-based, human; conditions: L02 normal cells, 24 h (PDP 24 h and 48 h), CCK-8, n = 3
Experimental: Academy of Science Cell Bank for Type Culture Collection (Shanghai, China) and cultured in RPMI-1640 medium, supplemented with 10% fetal bovine serum (FBS), penicillin G (100 U mL-1) and streptomycin (100 μg mL-1), and incubated in 5% CO2 […]
1.3.7 In vitro ROS generation
The intracellular ROS generation was analyzed by using a peroxide-sensitive fluorescent probe, 2′, 7′- dichlorofluorescin-diacetate (DCFH-DA, Beyotime, Beijing, China). According to the manufacturer’s instruction, cells (1×10^6 cells per well) were treated SSAs and Ppa at the same concentration of 1 μg Ppa mL-1. […] 20,000 events were collected and Flowjo software was used for quantifying the intensity of fluorescence.
The CCK-8 assay was used to examine the photodynamic therapeutic effect of SSAs on cell viability against three cell lines. […] After 24 h, the spent media was replaced and the cell viability was assessed using the CCK-8 reagent. The absorbance at […] of each well was recorded on a microplate reader. […] IC50 values were calculated by using nonlinear regression in software Graphpad Prism7. The cytotoxicity of SSAs and Ppa with or without laser against A549 cell line was also measured through the same procedure.
as §6

Substance | PDI ([1]; in H2O) | Size ([1]; in H2O) [nm·days] | Zeta Potential ([1]; in H2O) [mV] | PDI ([1]; in H2O+10%FBS) | Size ([1]; in H2O+10%FBS) [nm·days] | Zeta Potential ([1]; in H2O+10%FBS) [mV] | PDI ([1]; in PBS) | Size ([1]; in PBS) [nm·days] | Zeta Potential ([1]; in PBS) [mV] | PDI ([1]; in PBS+10%FBS) | Size ([1]; in PBS+10%FBS) [nm·days] | Zeta Potential ([1]; in PBS+10%FBS) [mV] | Colloidal stability: size and PDI over time [2] | Change in size and PDI after dispersion in NaCl or urea solution ([3]; 1-100 mM NaCl or urea) | Disassembly behavior in Triton solution ([3]; Triton X-100 at a high concentration (1-100 mM tested)) | Critical assembly concentration (CAC) [4] [µg/mL] | Hemolysis [5] | Cytotoxicity without laser irradiation (4T1 cells) | Cytotoxicity without laser irradiation (L02 cells)
PEG‐dendritic peptide‐pyropheophorbide a [PDPP] | 0.152±0.036 | 104.68 ± 15.10 | -25.49±0.58 | 0.167±0.012 | 96.13 ± 9.72 | -13.57±0.85 | 0.137±0.036 | 100.38 ± 19.12 | -5.28±7.86 | 0.154±0.013 | 102.58 ± 8.94 | -7.34±0.94 | remain unchanged for 7 d | no significant change | disassembly behaviors of PDPP would have occurred | 4.85 |  |  | 
PEG‐dendritic peptide [PDP] |  |  |  |  |  |  |  |  |  |  |  |  |  |  |  |  | no hemolysis is observed and detected | no significant cytotoxicity | no significant cytotoxicity
